We go through 2 molecules from US12679878B2, “CRF2 receptor agonists and their use in therapy” (SANOFI, priority 2020, dated 2026).

Starred links: 1 amine or outer side, 2 acyl side, 3 side chain; linkers in the order of their positions; H or OH if unused. Non-standard residues stand in square brackets, D forms with d. Groups on a side chain read outwards from the residue. No end group written: not given here. *: point of attachment. C18 diacid = O=C(O)CCCCCCCCCCCCCCCCC(=O)*; γGlu = O=C(O)[C@H](CCC(=O)[*:2])N[*:1]; AEEA = NCCOCCOCC(=O)O; Aib = CC(C)(N)C(=O)O Where only a bound is given, the exact number is not on record here.

The target in test [1] is T1, anti-target CRF1R receptor (UniProt P34998 24-415, limits assumed).
T1 sequence (looked up): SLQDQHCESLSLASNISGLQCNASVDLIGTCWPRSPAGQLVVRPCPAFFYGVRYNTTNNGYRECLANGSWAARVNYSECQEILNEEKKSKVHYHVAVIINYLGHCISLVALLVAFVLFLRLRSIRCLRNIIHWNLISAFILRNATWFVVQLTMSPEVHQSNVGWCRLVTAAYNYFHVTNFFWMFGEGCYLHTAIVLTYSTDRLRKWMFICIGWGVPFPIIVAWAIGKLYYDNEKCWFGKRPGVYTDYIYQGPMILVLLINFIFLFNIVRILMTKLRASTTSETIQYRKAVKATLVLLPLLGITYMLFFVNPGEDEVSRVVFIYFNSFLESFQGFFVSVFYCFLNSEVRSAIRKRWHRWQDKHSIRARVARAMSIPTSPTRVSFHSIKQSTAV
The experiment in a line: cell-based or functional assay.

The next test concerns the target rat CRF2R α receptor (rat, UniProt P47866 20-411). The experiment in a line: cell-based or functional assay.

Sequence of rat CRF2R α receptor (P47866 20-411): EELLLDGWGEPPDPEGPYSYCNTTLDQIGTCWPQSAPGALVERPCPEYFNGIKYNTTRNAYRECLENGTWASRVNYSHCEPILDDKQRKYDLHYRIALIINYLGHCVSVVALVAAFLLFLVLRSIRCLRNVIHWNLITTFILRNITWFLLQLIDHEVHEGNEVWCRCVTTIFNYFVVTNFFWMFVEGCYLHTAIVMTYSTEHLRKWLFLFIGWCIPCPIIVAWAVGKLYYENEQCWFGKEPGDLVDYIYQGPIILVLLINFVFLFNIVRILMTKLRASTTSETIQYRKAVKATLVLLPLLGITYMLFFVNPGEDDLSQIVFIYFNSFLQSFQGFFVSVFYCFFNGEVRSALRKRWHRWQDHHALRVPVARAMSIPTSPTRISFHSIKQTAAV

B1: peptide of SEQ ID NO: 52 (peptide)
peptide: FTLSLDVPTKIK([AEEA-AEEA-γGlu-C18 diacid])QILLKQQKQKKERQQAEKNKQLLERV-NH2
modifications: N-terminus assumed
SMILES: CC[C@H](C)[C@H](NC(=O)[C@H](CCC(N)=O)NC(=O)[C@H](CCCCNC(=O)COCCOCCNC(=O)COCCOCCNC(=O)CC[C@H](NC(=O)CCCCCCCCCCCCCCCCC(=O)O)C(=O)O)NC(=O)[C@@H](NC(=O)[C@H](CCCCN)NC(=O)[C@@H](NC(=O)[C@@H]1CCCN1C(=O)[C@@H](NC(=O)[C@H](CC(=O)O)NC(=O)[C@H](CC(C)C)NC(=O)[C@H](CO)NC(=O)[C@H](CC(C)C)NC(=O)[C@@H](NC(=O)[C@@H](N)Cc1ccccc1)[C@@H](C)O)C(C)C)[C@@H](C)O)[C@@H](C)CC)C(=O)N[C@@H](CC(C)C)C(=O)N[C@@H](CC(C)C)C(=O)N[C@@H](CCCCN)C(=O)N[C@@H](CCC(N)=O)C(=O)N[C@@H](CCC(N)=O)C(=O)N[C@@H](CCCCN)C(=O)N[C@@H](CCC(N)=O)C(=O)N[C@@H](CCCCN)C(=O)N[C@@H](CCCCN)C(=O)N[C@@H](CCC(=O)O)C(=O)N[C@@H](CCCNC(=N)N)C(=O)N[C@@H](CCC(N)=O)C(=O)N[C@@H](CCC(N)=O)C(=O)N[C@@H](C)C(=O)N[C@@H](CCC(=O)O)C(=O)N[C@@H](CCCCN)C(=O)N[C@@H](CC(N)=O)C(=O)N[C@@H](CCCCN)C(=O)N[C@@H](CCC(N)=O)C(=O)N[C@@H](CC(C)C)C(=O)N[C@@H](CC(C)C)C(=O)N[C@@H](CCC(=O)O)C(=O)N[C@@H](CCCNC(=N)N)C(=O)N[C@H](C(N)=O)C(C)C
As to B1, in test [1], the “EC50[nM] 0% HSA (cAMP, CRF1R-overexpression CHO cells)” value was greater than 1000 nM and the “Emax (%) (cAMP, CRF1R-overexpression CHO cells)” value stood at 5.3%. In addition, the “EC50 [nM], 0% HSA (cAMP, A7R5 cells)” value with rat CRF2R α receptor is 0.76 nM.

B2: peptide of SEQ ID NO: 46 (peptide)
peptide: IVLSLDVPIKLK([AEEA-AEEA-γGlu-C18 diacid])QILLEQAKQK[Aib]LRAQAETNVRILERV-NH2
modifications: N-terminus assumed
SMILES: CC[C@H](C)[C@H](N)C(=O)N[C@H](C(=O)N[C@@H](CC(C)C)C(=O)N[C@@H](CO)C(=O)N[C@@H](CC(C)C)C(=O)N[C@@H](CC(=O)O)C(=O)N[C@H](C(=O)N1CCC[C@H]1C(=O)N[C@H](C(=O)N[C@@H](CCCCN)C(=O)N[C@@H](CC(C)C)C(=O)N[C@@H](CCCCNC(=O)COCCOCCNC(=O)COCCOCCNC(=O)CC[C@H](NC(=O)CCCCCCCCCCCCCCCCC(=O)O)C(=O)O)C(=O)N[C@@H](CCC(N)=O)C(=O)N[C@H](C(=O)N[C@@H](CC(C)C)C(=O)N[C@@H](CC(C)C)C(=O)N[C@@H](CCC(=O)O)C(=O)N[C@@H](CCC(N)=O)C(=O)N[C@@H](C)C(=O)N[C@@H](CCCCN)C(=O)N[C@@H](CCC(N)=O)C(=O)N[C@@H](CCCCN)C(=O)NC(C)(C)C(=O)N[C@@H](CC(C)C)C(=O)N[C@@H](CCCNC(=N)N)C(=O)N[C@@H](C)C(=O)N[C@@H](CCC(N)=O)C(=O)N[C@@H](C)C(=O)N[C@@H](CCC(=O)O)C(=O)N[C@H](C(=O)N[C@@H](CC(N)=O)C(=O)N[C@H](C(=O)N[C@@H](CCCNC(=N)N)C(=O)N[C@H](C(=O)N[C@@H](CC(C)C)C(=O)N[C@@H](CCC(=O)O)C(=O)N[C@@H](CCCNC(=N)N)C(=O)N[C@H](C(N)=O)C(C)C)[C@@H](C)CC)C(C)C)[C@@H](C)O)[C@@H](C)CC)[C@@H](C)CC)C(C)C)C(C)C
As for B2, in test [1], the “EC50[nM] 0% HSA (cAMP, CRF1R-overexpression CHO cells)” value is greater than 1000 nM and the “Emax (%) (cAMP, CRF1R-overexpression CHO cells)” value is 5.88%. In addition, the “EC50 [nM], 0% HSA (cAMP, A7R5 cells)” value with rat CRF2R α receptor came to 8.97 nM.
